Reference: patent US20220025406

Tests used:
Assay in all cases: cell_activity
[1] = tested on: Sleeping Beauty transposase SB100X; conditions: excision in HeLa, 3 of 21 clones
[2] = tested on: phiC31 integrase (Streptomyces phage phiC31?); conditions: HeLa CI.24.22, 4 of 24 clones positive
[3] = tested on: gp3-phiC31 integrase fusion (Streptomyces phage phiC31?); conditions: HeLa CI.24.22.21.3, attL x attR recombination, 13 of 27 clones
[4] = tested on: hyperactive piggyBac transposase (HAhyPBase); conditions: excision in HeLa (step 1 and step 3 both 17%); 46% in hiPS cells (Table 17)

Sleeping Beauty ITRs flanking puro-delta-tk
activity [1]: 14%

phiC31 attB (pEP24) x attP (pEP28)
activity [2]: 16%

phiC31 attL (genomic) x attR (pEP50)
activity [3]: 48%

piggyBac ITRs flanking puro-delta-tk
activity [4]: 17%
